Measured values taken from paper doi:10.1101/2025.05.20.653754 (bioRxiv, 2025).
Values belong to the molecule of their own block, whether it stands above or below them.

Experiments:
[1] = target: full-length maize DUR3 fused with C-terminal GFP (Zea mays L.); test: SEC
[2] = target: maize DUR3 (ZmDUR3) with a C-terminal Strep-tag (Zea mays L.); test: cryo-EM structure
[3] = target: full-length Physcomitrium patens DUR3 (PpDUR3) fused with C-terminal GFP (Physcomitrium patens); test: SEC
SEC = target: the molecule itself; test: SEC

stoichiometry N [1]: 4
Molecule: full-length maize DUR3 fused with C-terminal GFP (natural protein)

stoichiometry N [2]: 4
Molecule: maize DUR3 (ZmDUR3) with a C-terminal Strep-tag (natural protein)

stoichiometry N [3]: 4
Molecule: full-length Physcomitrium patens DUR3 (PpDUR3) fused with C-terminal GFP (natural protein)

B1: full-length rice DUR3 (OsDUR3) fused with C-terminal GFP (natural protein, Oryza sativa, UniProt Q7XBS0 1-721, looked up)
chain: MASGVCPPAELGFGAEYYSVVNGVCSRAGSYFGGRPVLTQAVGYAVVLGFGAFFALFTSFLVWLEKRYVGSQHTSEWFNTAGRSVKTGLIASVIVSQWTWAATILQSSNVAWQYGVSGPFWYASGATIQVLLFGVMAIEIKRKAPNAHTVCEIVRARWGTPAHLVFLTFCLLTNVIVTAMLLLGGSAVVNALTGVNVYAASFLIPLGVVVYTLAGGLKATFLASYIHSVVVHAVLVVFVFLVYTSSSKLGSPRVVYDRLMAVASAARDCSADLSRNGQACGPVAGNFKGSYLTMLSSGGLVFGIINIVGNFGTVFVDNGYWMSAIAARPSSTHKGYLLGGLVWFAVPFSLATSLGLGALALDLPLTAAEAAKGLVPPATATALMGKSGSVLLLTMLFMAVTSAGSAELVAVSSLCTYDIYRTYLNPGASGKQILRVSRAVVLGFGCFMGVLAVVLNVAGVSLGWMYLAMGVIVGSAVIPIALLLLWSKANAVGAMGGAVSGCALGVAVWLTVAKVQYGRVNLDTTGRNAPMLAGNLVSILVGGAVHAACSLLRPQHYDWGTSREMITTVESVHAALDDELKEERLVHAKRWIVRWGLVFTAVIVVAWPALSLPARRYSLGYFTLWAAVAIAWGTVGSVVIILLPVAESWTTITKVCAGMFTNDAVYDRLDDVNLRLRAIMGAMPEAEKRYRQLHETEMHPAGTHPANDDDDDNNNNQMMHS
stoichiometry N (SEC): 4

B2: full-length Arabidopsis thaliana DUR3 fused with C-terminal GFP (natural protein, UniProt F4KD71 1-704, looked up)
chain: MATCPPFDFSTKYYDGDGGCQRQSSFFGGTTVLDQGVGYAVILGFGAFFAVFTSFLVWLEKRYVGARHTSEWFNTAGRNVKTGLIASVIVSQWTWAATILQSSNVAWQYGVSGPFWYASGATIQVLLFGVMAIEIKRKAPNAHTVCEIVKARWGTATHIVFLVFCLATNVVVTAMLLLGGSAVVNALTGVNLYAASFLIPLGVVVYTLAGGLKATFLASYVHSVIVHVALVVFVFLVYTSSKELGSPSVVYDRLKDMVAKSRSCTEPLSHHGQACGPVDGNFRGSYLTMLSSGGAVFGLINIVGNFGTVFVDNGYWVSAIAARPSSTHKGYLLGGLVWFAVPFSLATSLGLGALALDLPISKDEADRGLVPPATAIALMGKSGSLLLLTMLFMAVTSAGSSELIAVSSLFTYDIYRTYINPRATGRQILKISRCAVLGFGCFMGILAVVLNKAGVSLGWMYLAMGVLIGSAVIPIAFMLLWSKANAFGAILGATSGCVFGIITWLTTAKTQYGRVDLDSTGKNGPMLAGNLVAILTGGLIHAVCSLVRPQNYDWSTTREIKVVEAYASGDEDVDVPAEELREEKLRRAKAWIVKWGLVFTILIVVIWPVLSLPARVFSRGYFWFWAIVAIAWGTIGSIVIIGLPLVESWDTIKSVCMGMFTNDRVMKKLDDLNHRLRALTMAVPEAEKIYLLELEKTKKNDEEG
stoichiometry N (SEC): 4
